Measurements as given in publication PMC5746248, “Comparative analysis of the end-joining activity of several DNA ligases”.

How the values were obtained:
Assay in all cases: fluorescence anisotropy; 10 mM MgCl2, 1 mM ATP; T4 DNA ligase reaction buffer: 50 mM Tris-HCl pH 7.5 (25°C), 1 mM ATP, 10 mM MgCl2; 750 pM-4 nM DNA; anisotropy temperature not stated
hLig3 ZnF = biological target: T1, hLig3 ZnF (human, UniProt P49916 88-206); settings: protein: recombinant; tags: His10; label: 3'-FAM on one strand; blunt
T1 sequence: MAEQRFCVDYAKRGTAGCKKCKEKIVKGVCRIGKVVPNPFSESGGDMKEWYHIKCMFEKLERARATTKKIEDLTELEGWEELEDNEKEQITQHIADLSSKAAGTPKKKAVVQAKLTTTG

Sso7d = biological target: T2, Sso7d (Sulfolobus solfataricus, UniProt P39476 2-64); settings: protein: recombinant; tags: N-terminal His6; label: 3'-FAM on one strand; blunt
T2 sequence: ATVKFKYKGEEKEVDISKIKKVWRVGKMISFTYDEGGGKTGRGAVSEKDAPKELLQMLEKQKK

T3 DNA ligase = biological target: T3, T3 DNA ligase (bacteriophage T3, UniProt P07717 1-346); settings: label: 3'-FAM on one strand; blunt
T3 sequence: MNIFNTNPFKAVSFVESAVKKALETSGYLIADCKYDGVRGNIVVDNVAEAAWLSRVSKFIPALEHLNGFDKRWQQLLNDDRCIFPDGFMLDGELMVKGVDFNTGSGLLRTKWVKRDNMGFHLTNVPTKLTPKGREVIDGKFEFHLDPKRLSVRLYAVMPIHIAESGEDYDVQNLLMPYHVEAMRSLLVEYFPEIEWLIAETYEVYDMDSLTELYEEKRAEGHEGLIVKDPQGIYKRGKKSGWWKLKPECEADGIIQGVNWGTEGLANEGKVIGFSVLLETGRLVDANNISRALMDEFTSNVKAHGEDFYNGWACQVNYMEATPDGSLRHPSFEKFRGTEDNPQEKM

T4 DNA ligase = biological target: T4, T4 DNA ligase (bacteriophage T4, UniProt P00970 1-487); settings: label: 3'-FAM on one strand; blunt
T4 sequence: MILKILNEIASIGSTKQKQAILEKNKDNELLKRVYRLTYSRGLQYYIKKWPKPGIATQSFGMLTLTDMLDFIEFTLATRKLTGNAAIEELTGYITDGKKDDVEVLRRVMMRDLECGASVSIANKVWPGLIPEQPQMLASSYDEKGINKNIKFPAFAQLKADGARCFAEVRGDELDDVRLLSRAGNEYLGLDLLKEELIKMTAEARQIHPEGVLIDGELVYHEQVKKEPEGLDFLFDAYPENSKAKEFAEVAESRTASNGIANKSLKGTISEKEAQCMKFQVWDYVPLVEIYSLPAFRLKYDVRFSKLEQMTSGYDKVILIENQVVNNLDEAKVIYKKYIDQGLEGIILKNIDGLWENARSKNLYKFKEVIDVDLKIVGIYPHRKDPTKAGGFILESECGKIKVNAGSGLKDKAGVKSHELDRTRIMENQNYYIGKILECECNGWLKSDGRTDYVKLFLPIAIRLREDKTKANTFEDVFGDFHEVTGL

[1] = biological target: T5, hLig3 (human DNA ligase III beta) (human, UniProt P49916-2 88-949); settings: protein: recombinant; tags: N-terminal His6; label: 3'-FAM on one strand; blunt
T5 sequence: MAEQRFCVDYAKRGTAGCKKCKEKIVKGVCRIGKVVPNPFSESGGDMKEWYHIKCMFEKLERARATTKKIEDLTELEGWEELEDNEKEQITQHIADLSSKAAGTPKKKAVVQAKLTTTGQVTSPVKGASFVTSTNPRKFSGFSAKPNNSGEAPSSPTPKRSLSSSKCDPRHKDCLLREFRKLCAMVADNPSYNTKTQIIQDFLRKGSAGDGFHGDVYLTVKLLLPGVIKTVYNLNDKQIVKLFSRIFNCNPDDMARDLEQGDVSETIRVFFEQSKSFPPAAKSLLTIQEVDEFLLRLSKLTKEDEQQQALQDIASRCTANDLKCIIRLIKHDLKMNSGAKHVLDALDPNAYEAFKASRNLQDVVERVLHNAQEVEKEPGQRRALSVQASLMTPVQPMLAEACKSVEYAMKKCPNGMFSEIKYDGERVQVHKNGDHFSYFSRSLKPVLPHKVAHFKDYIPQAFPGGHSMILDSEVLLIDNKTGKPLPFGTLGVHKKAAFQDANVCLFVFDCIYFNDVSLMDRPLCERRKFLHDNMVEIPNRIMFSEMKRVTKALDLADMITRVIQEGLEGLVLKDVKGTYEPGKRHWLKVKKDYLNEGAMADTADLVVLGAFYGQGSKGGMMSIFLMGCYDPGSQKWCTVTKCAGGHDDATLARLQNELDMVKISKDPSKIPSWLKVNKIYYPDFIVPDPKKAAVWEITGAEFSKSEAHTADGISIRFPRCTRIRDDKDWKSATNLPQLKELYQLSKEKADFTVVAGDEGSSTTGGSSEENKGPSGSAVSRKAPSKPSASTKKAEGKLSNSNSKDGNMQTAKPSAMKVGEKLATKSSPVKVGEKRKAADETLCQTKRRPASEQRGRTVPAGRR

PBCV1-Nterm-T4NTD = PBCV1-Nterm-T4NTD (bacteriophage T4 (T4NTD) / Paramecium …, UniProt P00970 1-135+O41026:1-298, internal_change); settings: protein: recombinant; tags: N-terminal His6; label: 3'-FAM on one strand; blunt
PBCV1 DNA ligase = biological target: T6, PBCV1 DNA ligase (Paramecium bursaria chlorella virus 1, UniProt O41026 1-298); settings: protein: recombinant; label: 3'-FAM on one strand; blunt
T6 sequence: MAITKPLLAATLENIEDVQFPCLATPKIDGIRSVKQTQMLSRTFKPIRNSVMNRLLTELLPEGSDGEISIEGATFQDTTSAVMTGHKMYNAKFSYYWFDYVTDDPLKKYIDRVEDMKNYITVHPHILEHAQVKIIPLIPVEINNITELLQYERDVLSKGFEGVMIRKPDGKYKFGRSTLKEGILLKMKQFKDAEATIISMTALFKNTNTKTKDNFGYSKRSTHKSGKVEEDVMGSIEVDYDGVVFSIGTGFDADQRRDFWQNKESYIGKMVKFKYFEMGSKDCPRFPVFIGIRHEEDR

B1: Anisotropy 24mer dsDNA (dsDNA)
DNA 1: GATCGTCCTTGGTGATCATGCATC
DNA 2: GATGCATGATCACCAAGGACGATC
In the case of B1, the Kd (hLig3 ZnF) is reported as 21 ± 1 nM, the Kd (Sso7d) is reported as 430 ± 60 nM and the Kd (T3 DNA ligase) is reported as 6400 ± 400 nM. The Kd (T4 DNA ligase) was 1900 ± 100 nM, the Kd [1] was 3.8 ± 0.2 nM and the Kd (PBCV1-Nterm-T4NTD) was 243 ± 39 nM. For the same binder, the Kd (PBCV1 DNA ligase) was 990 ± 80 nM.
